Our source for the maximum percent inhibition values is patent US20090004680A1.

For the experiment, the target named is Mouse synaptosomes (BoNT/A acceptor on a mouse synaptosome preparation).

In the case of “Inactivated BoNT/A (toxoid) (from UniProt P0DPI0 2-1296)”, the maximum percent inhibition was 98%.
